Laboratory results reported in US20030162220A1 (HARUO SUGIYAMA, published 2003).
Blank lines part the entries; values can stand above or below the binder they belong to.

Target: T1, GST (glutathione S-transferase) alone (UniProt P08515 1-218 = GST)
T1 construct: Control probe in the west western blots
Experiment: west western blot of his-tagged WTIP fragments (E. coli lysate) probed with GST

T1 sequence (P08515 whole entry): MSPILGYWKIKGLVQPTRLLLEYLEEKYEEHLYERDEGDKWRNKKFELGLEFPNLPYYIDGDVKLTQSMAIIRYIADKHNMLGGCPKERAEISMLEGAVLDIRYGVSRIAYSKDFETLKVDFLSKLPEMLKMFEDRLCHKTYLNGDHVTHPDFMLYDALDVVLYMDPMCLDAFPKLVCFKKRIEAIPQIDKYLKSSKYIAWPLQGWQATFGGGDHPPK

- binding result: no binding
B1: WTIP 1-178, polypeptide containing the WW domain at the N-terminal end of WTIP with a histidine tag at the C-terminal (other)
chain: MRPGTGAERGGLMVSEMESHPPSQGPGDGERRLSGSSLCSGSWVSADGFLRRRPSMGHPGMHYAPMGMHPMGQRANMPPVPHGMMPQMMPPMGGPPMGQMPGMMSSVMPGMMMSHMSQASMQPALPPGVNSMDVAAGTASGAKSMWTEHKSPDGRTYYYNTETKQSTWEKPDDLKTPA
notes: Expressed in E. coli; whole-cell lysate run on SDS-PAGE and blotted; not shown: C-terminal his tag and XhoI junction residues from pET-21b(+)

- binding result: no binding
B2: WTIP 1-98, polypeptide containing no WW domains with a histidine tag at the C-terminal (other)
chain: MRPGTGAERGGLMVSEMESHPPSQGPGDGERRLSGSSLCSGSWVSADGFLRRRPSMGHPGMHYAPMGMHPMGQRANMPPVPHGMMPQMMPPMGGPPMG
notes: Expressed in E. coli; whole-cell lysate run on SDS-PAGE and blotted; also called HYPA/FBP11 amino acids 1-98; mutant containing no WW domain; not shown: C-terminal his tag and XhoI junction residues from pET-21b(+)
